Experiments:
[1] = biological target: HLA-A*68:02; test: IEDB peptide-MHC binding, purified MHC/competitive/radioactivity; ≥ and ≤ were set here for values at or beyond the usual limits of such assays
[2] = biological target: HLA-A*02:03; test: IEDB peptide-MHC binding, cellular MHC/competitive/fluorescence; ≥ and ≤ were set here for values at or beyond the usual limits of such assays
[3] = biological target: HLA-A*02:06; test: as above
[4] = biological target: HLA-A*02:02; test: as above
[5] = biological target: HLA-A*02:01; test: as above
[6] = biological target: HLA-A*02:06; test: IEDB peptide-MHC binding, purified MHC/competitive/radioactivity; ≥ and ≤ were set here for values at or beyond the usual limits of such assays
[7] = biological target: HLA-A*68:02; test: IEDB peptide-MHC binding, cellular MHC/competitive/fluorescence; ≥ and ≤ were set here for values at or beyond the usual limits of such assays
[8] = biological target: HLA-A*02:01; test: IEDB peptide-MHC binding, purified MHC/competitive/radioactivity; ≥ and ≤ were set here for values at or beyond the usual limits of such assays
[9] = biological target: HLA-A*02:02; test: as above
[10] = source organism: Vaccinia virus WR
[11] = source organism: Influenza A virus
[12] = source organism: Hepacivirus hominis
[13] = source organism: Mammarenavirus choriomeningitidis
[14] = source organism: Mammarenavirus guanaritoense

Row | Sequence | IC50 [1, 10] | IC50 [2, 10] | IC50 [4, 10] | IC50 [5, 10] | IC50 [6, 10] | IC50 [7, 10] | other results
1 | NACDKHNKT | 925 nM | 9.25 µM | 17.9 µM | 22.5 µM |  |  | IC50 [3, 10]: 18.6 µM
2 | QTVDFTDCRT | 33 nM | 54.3 µM | 30.5 µM | 40.1 µM | 3640 nM |  | 
3 | AVYFKAKWLT | 605 nM | 8.93 µM | 27.2 µM | 8.89 µM |  |  | IC50 [3, 10]: 8.71 µM
4 | DTSPTKRCRL | 1990 nM | 37.1 µM | 12.2 µM | ≥ 70 µM |  |  | IC50 [3, 10]: 44.6 µM
5 | MAFILGIII | 4930 nM | 9.76 µM | 9.54 µM | 5.87 µM |  |  | IC50 [3, 10]: 32.5 µM
6 | IIDLLLPST |  | 10.3 µM | 15.1 µM | 5.65 µM | 1120 nM | ≥ 70 µM | 
7 | ETNIGCAVNT | 22 nM | 37 µM | ≥ 70 µM | 58.4 µM |  |  | IC50 [3, 10]: ≥ 70 µM
8 | SAGFTATICL | 3880 nM | 20.1 µM | 6.9 µM | 10.4 µM | 2410 nM |  | 
9 | PVVYHDDDNT |  | 26.8 µM | 9.14 µM | 11.7 µM | 1360 nM | 11.4 µM | 
10 | DTDIVNNFIT |  | 5.59 µM | 8.59 µM | 7.86 µM | 2310 nM | 7.68 µM | 
11 | ITLILSNKL |  | 17.1 µM | 5.11 µM | 6.79 µM | 396 nM | 8.73 µM | 
12 | EVRYIDITNI | 41 nM | 5.81 µM | 12.9 µM | 8.61 µM | 4340 nM |  | 
13 | IVQLPKRGV | 4270 nM | 8.75 µM | 12 µM | 15.3 µM | 3120 nM |  | 
14 | HVLLPFYET | 924 nM | 18.6 µM | 16.4 µM |  | 1740 nM |  | IC50 [8, 10]: 2490 nM
15 | KADAVVADL |  | 12.4 µM | 5.14 µM |  | 2210 nM | 23.4 µM | IC50 [8, 10]: 3960 nM
16 | NVLSIAPI |  |  |  |  |  |  | IC50 [1, 11]: 1330 nM; IC50 [6, 11]: 2340 nM; IC50 [2, 11]: 17.4 µM; IC50 [4, 11]: 39.7 µM; IC50 [5, 11]: 8.52 µM
17 | NAILHNIYRL | 724 nM | 10.2 µM | 5.61 µM |  | 576 nM |  | IC50 [8, 10]: 540 nM
18 | LLLGLLLLCV |  |  |  |  |  |  | IC50 [6, 12]: 5000 nM; IC50 [8, 12]: 2180 nM; IC50 [7, 12]: 57.9 µM; IC50 [2, 12]: 10.3 µM; IC50 [4, 12]: 16.9 µM
19 | LALWDSNFFT |  | 19.9 µM | 11 µM |  | 1250 nM | ≥ 70 µM | IC50 [8, 10]: 815 nM
20 | TTENAAYQV | 187 nM | 51.3 µM | ≥ 70 µM | 29.6 µM | 442 nM |  | 
21 | GVLHTKFWI |  | 12.3 µM | 16.6 µM |  | 417 nM | 43.9 µM | IC50 [8, 10]: 2700 nM
22 | TVDFTDCRT | 612 nM | 27 µM | 9.68 µM | 33.6 µM | 339 nM |  | 

Row | Sequence | IC50 [1, 10] | IC50 [2, 10] | IC50 [4, 10] | IC50 [5, 10] | IC50 [6, 10] | IC50 [7, 10] | other results
23 | FSLGAAVKA |  |  |  |  |  |  | IC50 [1, 13]: 1780 nM; IC50 [6, 13]: 327 nM; IC50 [2, 13]: 13.4 µM; IC50 [4, 13]: 6.47 µM; IC50 [5, 13]: 11 µM
24 | TTNNLLEQLI | 73 nM | 21 µM | 8.88 µM |  |  |  | IC50 [8, 10]: 4930 nM; IC50 [3, 10]: 13.1 µM
25 | CAVIPFDDI | 23 nM | 10 µM | 15.8 µM | 17 µM | 1160 nM |  | 
26 | PIPYSRVNHA |  | 15.3 µM | 11.7 µM | 54 µM | 1450 nM | 48.3 µM | 
27 | KVIKLVKSLV |  | 13.4 µM | 14.3 µM | 24.9 µM | 2140 nM | 16.2 µM | 
28 | VIVPDIKLDA |  | 21.4 µM | 33.5 µM | 22.6 µM | 883 nM | ≥ 70 µM | 
29 | IQYRQQLELA |  | 8.47 µM |  | ≥ 70 µM |  | 12.9 µM | IC50 [9, 10]: 4320 nM; IC50 [3, 10]: ≥ 70 µM
30 | IVPDADPPI | 1520 nM | 10.7 µM | 5.08 µM |  | 274 nM |  | IC50 [8, 10]: 743 nM
31 | YVLFVKKML |  | 12 µM | 31.1 µM | 5.15 µM | 2540 nM | 11.4 µM | 
32 | YLSKEDRIIT |  | 5.57 µM |  | 11.9 µM |  | 21.5 µM | IC50 [9, 10]: 1300 nM; IC50 [3, 10]: 48.7 µM
33 | NTVSSFQV |  |  |  |  |  |  | IC50 [1, 11]: 566 nM; IC50 [6, 11]: 4480 nM; IC50 [2, 11]: 60.1 µM; IC50 [4, 11]: ≥ 70 µM; IC50 [5, 11]: 52.7 µM
34 | DIIDLLLPST | 164 nM | 6.59 µM | 14.5 µM |  | 284 nM |  | IC50 [8, 10]: 949 nM
35 | RQLTSNVDV |  | 9.76 µM | 50.8 µM | 8.98 µM | 170 nM | 18.8 µM | 
36 | CNYTRFWYI |  |  |  |  |  |  | IC50 [1, 14]: 344 nM; IC50 [6, 14]: 258 nM; IC50 [8, 14]: 1660 nM; IC50 [2, 14]: 5.31 µM; IC50 [4, 14]: 10.1 µM
37 | VATFRDMLL |  | 9.94 µM |  | 8.94 µM |  | 5.92 µM | IC50 [9, 10]: 2530 nM; IC50 [3, 10]: 7.71 µM
38 | FANVISKIYT |  | 5.31 µM | 7.79 µM | 15.7 µM | 1660 nM | 5.49 µM | 
39 | VVIVENDNV | 967 nM | 38 µM | 13.2 µM | 34.4 µM | 4300 nM |  | 
40 | VTPEYIKDL |  | ≥ 70 µM | 10.4 µM | 9.23 µM | 1760 nM | ≥ 70 µM | 
41 | STTGEWPLI | 602 nM | 44.5 µM | 21.1 µM | 8.57 µM | 1240 nM |  | 
42 | NVTGFMEEEI | 1480 nM | 5.14 µM | 10.3 µM |  |  |  | IC50 [8, 10]: 4400 nM; IC50 [3, 10]: 17.6 µM
43 | CAVNTPVSM | 502 nM | 15.7 µM | 6.27 µM | 49.1 µM | 1520 nM |  | 
44 | PLPCQLMYAL |  | 8.71 µM |  | 13 µM |  | 31.3 µM | IC50 [9, 10]: 163 nM; IC50 [3, 10]: 9.81 µM

Row | Sequence | IC50 [1, 10] | IC50 [2, 10] | IC50 [4, 10] | IC50 [5, 10] | IC50 [6, 10] | IC50 [7, 10] | other results
45 | DTMRIYCSL | 1.3 nM | 5.46 µM | 5.84 µM |  | 2920 nM |  | IC50 [8, 10]: 3400 nM
46 | KTNTKHCPKI |  | 10.9 µM | 33.8 µM | 36.5 µM | 234 nM | 20 µM | 
47 | KTEHCDDFM |  | 18.1 µM | 6.5 µM | 16.1 µM | 2520 nM | ≥ 70 µM | 
48 | NLYISDYKM |  | 25.3 µM |  | 6.17 µM |  | 14.9 µM | IC50 [9, 10]: 2790 nM; IC50 [3, 10]: 11 µM
49 | IVPDIKLDA | 2890 nM | 15.7 µM | 6.39 µM | 42.2 µM | 3430 nM |  | 
50 | KVEKYLPEVI |  | 12.4 µM | 12.1 µM | 8.62 µM | 734 nM | ≥ 70 µM | 
51 | DIKYDNKLL |  | 49.8 µM |  | 26.5 µM |  | 24.8 µM | IC50 [9, 10]: 1420 nM; IC50 [3, 10]: ≥ 70 µM
52 | RQQLEDIFM |  | 26.9 µM | 5.73 µM | 10 µM | 944 nM | ≥ 70 µM | 
53 | ETQSGALEVL | 58 nM | 14.5 µM | 5.31 µM | 5.14 µM | 1580 nM |  | 
54 | LVIRNEVNDT | 854 nM | 15.2 µM | 5.5 µM | 12.6 µM | 2170 nM |  | 
55 | FVVNGHTCM |  | 5.9 µM | 6.64 µM | 22.3 µM | 1810 nM | 7.46 µM | 
56 | VILPDKIDGL |  | 10.8 µM | 8.09 µM |  | 240 nM | ≥ 70 µM | IC50 [8, 10]: 1780 nM
57 | GVLPEETNI |  | 20.4 µM | 17.3 µM | 17.3 µM | 573 nM | 12 µM | 
58 | FTDCRTIDAI | 171 nM | 12.8 µM | 9.44 µM |  | 751 nM |  | IC50 [8, 10]: 1840 nM
59 | IAGLKIEEI |  | 6.09 µM | 7.66 µM | 23.2 µM | 1970 nM | 27.5 µM | 
60 | GTGILFMEM |  | 7.73 µM |  | 6.37 µM |  | 26.5 µM | IC50 [9, 10]: 2200 nM; IC50 [3, 10]: 9.97 µM
61 | SAFDERRNRYL |  |  |  |  |  |  | IC50 [9, 11]: 1280 nM; IC50 [7, 11]: 5.9 µM; IC50 [2, 11]: 5.17 µM; IC50 [3, 11]: 34.7 µM; IC50 [5, 11]: 17.8 µM
62 | FIDRGSIKI |  | 12.2 µM | 9.72 µM | 6.95 µM | 4030 nM | 48 µM | 
63 | IAVSVYGAIT | 4380 nM | 9.24 µM | 7.89 µM |  |  |  | IC50 [3, 10]: 14.4 µM
64 | FTHTTAFFNT | 1020 nM | 10.2 µM | 17.2 µM | 9.94 µM | 51 nM |  | 
65 | KTPVIVVPVI |  | 6.2 µM | 9.09 µM | 12 µM | 1890 nM | 36.5 µM | 
66 | VVECLTVPNI | 3750 nM | 19.6 µM | 8.42 µM |  | 301 nM |  | IC50 [8, 10]: 4280 nM

Reference: the Immune Epitope Database (IEDB)
